# Assay results from US20240376208A1 (AFFIMED, published 2024).
# Where two headings read alike, the source gives them in different places.
# T1: BCMA on MM.1S target cells (UniProt Q02223 1-184, limits assumed)
# T1 sequence (looked up): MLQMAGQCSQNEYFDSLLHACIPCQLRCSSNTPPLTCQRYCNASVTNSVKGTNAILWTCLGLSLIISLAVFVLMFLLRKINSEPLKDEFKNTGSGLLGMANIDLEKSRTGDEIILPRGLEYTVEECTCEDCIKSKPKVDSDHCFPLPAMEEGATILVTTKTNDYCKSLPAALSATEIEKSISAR
# Tests used:
# [1] = biological target: T2, biotinylated dimeric CD16A antigen (human, UniProt P08637 17-208, limits assumed, biotinylated (site not stated)); assay: ELISA, biotinylated dimeric CD16A titrated on coated construct
# T2 construct: Soluble antigen; also called soluble CD16A antigen
# T2 sequence (P08637 17-208 limits assumed): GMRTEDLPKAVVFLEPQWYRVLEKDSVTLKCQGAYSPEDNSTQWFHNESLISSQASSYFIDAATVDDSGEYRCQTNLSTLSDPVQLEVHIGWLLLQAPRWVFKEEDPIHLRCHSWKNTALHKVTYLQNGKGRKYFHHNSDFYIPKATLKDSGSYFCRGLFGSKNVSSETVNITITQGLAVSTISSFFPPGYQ
# Experimental: (§1) For the capturing approach, 96-well ELISA plates (Immuno Maxisorp, Nunc) were coated overnight at 4° C. with His-tagged human EGFR or BCMA extracellular domain at concentrations of 3.0 or 0.4 μg/mL, respectively. After blocking with 3% (w/v) skimmed milk powder dissolved in phosphate buffered saline (PBS), antigen coated plates were used for capturing of different multivalent bispecific engagers at concentrations of 3-5 μg/mL in PBS containing 0.3% (w/v) skimmed milk powder. After washing three times with 300 μL per well of PBS containing 0.1% (v/v) Tween 20, plates were incubated with serial dilutions of biotinylated dimeric or monomeric CD16A antigen in PBS containing 0.3% (w/v) skimmed milk powder for 1.5 h at room temperature. After washing, plates were incubated with the detection conjugate Streptavidin HRP, 1:10,000 diluted in PBS containing 0.3% (w/v) skimmed milk powder for 1 h followed by washing and incubation with tetramethylbenzidine substrate (Seramun) for 1-2 min. Reaction was stopped by addition of 0.5 M H₂SO₄ (100 μL/well). Absorbance was measured at 450 nm using a multiwell plate reader, plotted and EC₅₀ values were determined by fitting a nonlinear regression model to sigmoidal dose-response curves (four parameters logistic fit) using GraphPad Prism software.
# (§2) Concentration dependent binding of antibody constructs to coated recombinant CD16A antigen, or of soluble monomeric or dimeric CD16 antigen variants to coated or target antigen captured antibody constructs was analyzed in ELISA. Half maximal binding concentrations (EC₅₀) were determined by fitting a nonlinear regression model to sigmoidal dose-response curves (four parameters logistic fit) using GraphPad Prism software.
# [2] = biological target: T3, EGFR on tumor target cells (MCF-7, Daudi, DK-MG, HCT-116) (UniProt P00533 25-1210, limits assumed); assay: cell-based or functional assay
# [3] = biological target: T4, biotinylated monomeric CD16A antigen (human, UniProt P08637 17-208, limits assumed, biotinylated (site not stated)); assay: ELISA, biotinylated monomeric CD16A titrated on coated construct
# T4 construct: Soluble antigen; also called soluble CD16A antigen
# T4 sequence (P08637 17-208 limits assumed): as above
# Experimental: as §1, §2
# [4] = biological target: T4, biotinylated monomeric CD16A antigen; assay: ELISA, biotinylated monomeric CD16A titrated on construct captured by coated His-tagged human EGFR extracellular domain
# Experimental: as §1, §2
# [5] = biological target: recombinant CD16A 158V fused to monomeric human Fc (human, UniProt P08637 17-208); assay: ELISA, construct titrated on coated CD16A 158V fused to monomeric human Fc
# recombinant CD16A 158V fused to monomeric human Fc, sequence (P08637 17-208 F176V): as the sequence (P08637 17-208 limits assumed) above, with F160V counted along it
# [6] = biological target: T5, recombinant CD16A 158F fused to monomeric human Fc (human, UniProt P08637 17-208); assay: ELISA, construct titrated on coated CD16A 158F fused to monomeric human Fc
# T5 construct: also called recombinant CD16 antigen variant; not shown: monomeric human Fc
# T5 sequence (P08637 17-208): as the sequence (P08637 17-208 limits assumed) above
# Experimental: To assess binding of EGFR/CD16 or BCMA/CD16 antibodies to coated antigen in ELISA, 96-well ELISA plates (Immuno Maxisorp, Nunc) were coated overnight at 4° C. with recombinant CD16 antigen variants fused to monomeric human Fc at a concentration of 1.5 μg/mL in 100 mM carbonate-bicarbonate buffer. After blocking with 3% (w/v) skimmed milk powder dissolved in phosphate buffered saline (PBS) serial dilutions of bispecific antibody constructs were incubated on the antigen coated plates for 1.5 h at room temperature. […] After washing, plates were incubated with tetramethylbenzidine substrate (Seramun) for 1-2 min. Reaction was stopped by addition of 0.5 M H₂SO₄ (100 μL/well). Absorbance was measured at 450 nm using a multiwell plate reader, plotted and EC₅₀ values were determined by fitting a nonlinear regression model to sigmoidal dose-response curves (four parameters logistic fit) using GraphPad Prism software.
# as §2
# [7] = biological target: CD16A on primary human NK cells (human, UniProt P08637 17-254); assay: cell-based or functional assay
# CD16A on primary human NK cells, sequence (P08637 17-254 limits assumed): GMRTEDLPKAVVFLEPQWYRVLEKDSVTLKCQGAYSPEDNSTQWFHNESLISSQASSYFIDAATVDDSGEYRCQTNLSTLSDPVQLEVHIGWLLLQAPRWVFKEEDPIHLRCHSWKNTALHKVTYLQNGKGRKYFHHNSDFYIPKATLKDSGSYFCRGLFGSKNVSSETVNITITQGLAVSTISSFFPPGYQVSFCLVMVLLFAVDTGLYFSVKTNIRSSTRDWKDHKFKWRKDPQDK
# [8] = biological target: T3, EGFR on tumor target cells (MCF-7, …); assay: cell-based or functional assay; remark: listed apart in the source
# [9] = biological target: T3, EGFR on tumor target cells (MCF-7, …); assay: cell-based or functional assay; remark: listed apart in the source
# [10] = biological target: T2, biotinylated dimeric CD16A antigen; assay: ELISA, biotinylated dimeric CD16A titrated on construct captured by coated His-tagged human EGFR extracellular domain
# Experimental: as §1, §2
# [11] = biological target: T4, biotinylated monomeric CD16A antigen; assay: ELISA, biotinylated monomeric CD16A titrated on construct captured by coated His-tagged human BCMA extracellular domain
# Experimental: as §1, §2
# [12] = biological target: T2, biotinylated dimeric CD16A antigen; assay: ELISA, biotinylated dimeric CD16A titrated on construct captured by coated His-tagged human BCMA extracellular domain
# Experimental: as §1, §2
# [13] = biological target: T1, BCMA on MM.1S target cells; assay: cell-based or functional assay
Binder,EC50 [1],"Emax [%], 4 h calcein-release cytotoxicity on Daudi target cells, NK cells E:T 5:1 [2]",EC50 [3],EC50 [4],EC50 [5],EC50 [6],"Emax [%], 4 h calcein-release NK cell fratricide assay, E:T 1:1 [7]","EC50 [pM], 4 h calcein-release cytotoxicity on MCF-7 target cells, NK cells E:T 5:1 [8]","Emax [%], 4 h calcein-release cytotoxicity on MCF-7 target cells, NK cells E:T 5:1 [8]","EC50 [pM], 4 h calcein-release cytotoxicity on Daudi target cells, NK cells E:T 5:1 [9]","Emax [%], 4 h calcein-release cytotoxicity on Daudi target cells, NK cells E:T 5:1 [9]",EC50 [10],EC50 [11],EC50 [12],"EC50 [pM], 4 h calcein-release cytotoxicity on BCMA+ MM.1S target cells, NK cells E:T 5:1 [13]","Emax [%], 4 h calcein-release cytotoxicity on BCMA+ MM.1S target cells, NK cells E:T 5:1 [13]"
"Bi-scDb-Fc_02 (bispecific antibody, human IgG1, Anti-EGFR scFv - silenced Fc - anti-CD16A scDb; Four anti-CD16A and two anti-EGFR Fv domains) QVQLQESGPGLVKPSETLSLTCTVSGGSVSSGSYYWSWIRQPPGKGLEWIGYIYYSGSTNYNPSLKSRVTISVDTSKNQFSLKLSSVTAADTAVYYCARNPISIPAFDIWGQGTMVTVSSGGSGGSGGSGGSGGSGGSQPVLTQPPSVSVAPGKTARITCGGNNIGSKSVHWYQQKPGQAPVLVIYYDSDRPSGIPERFSGSNSGNTATLTISRVEAGDEADYYCQVWDTSSDHVLFGGGTKLTVLEPKSCDKTHTCPPCPAPEFEGGPSVFLFPPKPKDTLMISRTPEVTCVVVAVSHEDPEVKFNWYVDGVEVHNAKTKPREEQYNSTYRVVSVLTVLHQDWLNGKEYKCKVSNKALPAPIEKTISKAKGQPREPQVYTLPPSREEMTKNQVSLTCLVKGFYPSDIAVEWESNGQPENNYKTTPPVLDSDGSFFLYSKLTVDKSRWQQGNVFSCSVMHEALHNHYTQKSLSLSPGGGGGSGGGGSSYVLTQPSSVSVAPGQTATISCGGHNIGSKNVHWYQQRPGQSPVLVIYQDNKRPSGIPERFSGSNSGNTATLTISGTQAMDEADYYCQVWDNYSVLFGGGTKLTVLGGSGGSQVQLVQSGAEVKKPGESLKVSCKASGYTFTSYYMHWVRQAPGQGLEWMGAIEPMYGSTSYAQKFQGRVTMTRDTSTSTVYMELSSLRSEDTAVYYCARGSAYYYDFADYWGQGTLVTVSSGGSGGSGGSGGSGGSGGSSYVLTQPSSVSVAPGQTATISCGGHNIGSKNVHWYQQRPGQSPVLVIYQDNKRPSGIPERFSGSNSGNTATLTISGTQAMDEADYYCQVWDNYSVLFGGGTKLTVLGGSGGSQVQLVQSGAEVKKPGESLKVSCKASGYTFTSYYMHWVRQAPGQGLEWMGAIEPMYGSTSYAQKFQGRVTMTRDTSTSTVYMELSSLRSEDTAVYYCARGSAYYYDFADYWGQGTLVTVSS",0.97 nM,18.4%,3.1 nM,1.74 nM,0.11 nM,0.13 nM,23%,1.9 pM,32.9%,20.5 pM,32.6%,0.79 nM,–,–,–,–
"Bi-scDb-Fc_01 (bispecific antibody, human IgG1, Anti-BCMA scFv - silenced Fc - anti-CD16A scDb) EVQLLESGGGLVQPGGSLRLSCAASGFTFSNYDMAWVRQAPGKGLEWVSSISTRGDITSYRDSVKGRFTISRDNSKNTLYLQMNSLRAEDTAVYYCARQDYYTDYMGFAYWGQGTLVTVSSGGGGSGGGGSGGGGSAIQMTQSPSSLSASVGDRVTITCRASEDIYNGLAWYQQKPGKAPKLLIYGASSLQDGVPSRFSGSGSGTEFTLTISSLQPEDEATYYCAGPHKYPLTFGGGTKVEIKEPKSCDKTHTCPPCPAPEFEGGPSVFLFPPKPKDTLMISRTPEVTCVVVAVSHEDPEVKFNWYVDGVEVHNAKTKPREEQYNSTYRVVSVLTVLHQDWLNGKEYKCKVSNKALPAPIEKTISKAKGQPREPQVYTLPPSREEMTKNQVSLTCLVKGFYPSDIAVEWESNGQPENNYKTTPPVLDSDGSFFLYSKLTVDKSRWQQGNVFSCSVMHEALHNHYTQKSLSLSPGGGGGSGGGGSSYVLTQPSSVSVAPGQTATISCGGHNIGSKNVHWYQQRPGQSPVLVIYQDNKRPSGIPERFSGSNSGNTATLTISGTQAMDEADYYCQVWDNYSVLFGGGTKLTVLGGSGGSQVQLVQSGAEVKKPGESLKVSCKASGYTFTSYYMHWVRQAPGQGLEWMGAIEPMYGSTSYAQKFQGRVTMTRDTSTSTVYMELSSLRSEDTAVYYCARGSAYYYDFADYWGQGTLVTVSSGGSGGSGGSGGSGGSGGSSYVLTQPSSVSVAPGQTATISCGGHNIGSKNVHWYQQRPGQSPVLVIYQDNKRPSGIPERFSGSNSGNTATLTISGTQAMDEADYYCQVWDNYSVLFGGGTKLTVLGGSGGSQVQLVQSGAEVKKPGESLKVSCKASGYTFTSYYMHWVRQAPGQGLEWMGAIEPMYGSTSYAQKFQGRVTMTRDTSTSTVYMELSSLRSEDTAVYYCARGSAYYYDFADYWGQGTLVTVSS",1.14 nM,–,3.4 nM,–,0.17 nM,0.24 nM,–,–,–,–,–,–,1.72 nM,0.64 nM,1.1 pM,51.2%
